Results reported in patent US6225451.

System: T1, CHD1.ZnF3-8 (CHD1 zinc fingers 3 through 8) (Homo sapiens)
T1 sequence: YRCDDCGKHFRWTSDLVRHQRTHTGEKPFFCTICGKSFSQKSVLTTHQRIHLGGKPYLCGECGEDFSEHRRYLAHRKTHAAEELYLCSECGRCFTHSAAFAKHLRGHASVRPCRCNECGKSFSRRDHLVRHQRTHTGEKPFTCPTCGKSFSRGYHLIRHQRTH
Assay: EMSA
Conditions: apparent, upper limit from protein dilution; poly d(I:C) does not compete

ApoAIV promoter fragment -573 to -165
Kd: 10 nM
